Laboratory results: publication PMC3273815

Assays:
[1] = biological target: BcMCM 501–1028 (helicase domain) (Bacillus cereus (integrated prophage)); test: negative-stain electron microscopy
[2] = biological target: BcMCM Walker B mutant (D711A) (Bacillus cereus (integrated prophage)); test: SEC
[3] = biological target: BcMCM presensor I β-hairpin mutant (R737A) (Bacillus cereus (integrated prophage)); test: SEC
[4] = biological target: T1, BcMCM wild type (Bacillus cereus (prophage), UniProt Q81EV1 1-1028); test: pull-down
T1 sequence: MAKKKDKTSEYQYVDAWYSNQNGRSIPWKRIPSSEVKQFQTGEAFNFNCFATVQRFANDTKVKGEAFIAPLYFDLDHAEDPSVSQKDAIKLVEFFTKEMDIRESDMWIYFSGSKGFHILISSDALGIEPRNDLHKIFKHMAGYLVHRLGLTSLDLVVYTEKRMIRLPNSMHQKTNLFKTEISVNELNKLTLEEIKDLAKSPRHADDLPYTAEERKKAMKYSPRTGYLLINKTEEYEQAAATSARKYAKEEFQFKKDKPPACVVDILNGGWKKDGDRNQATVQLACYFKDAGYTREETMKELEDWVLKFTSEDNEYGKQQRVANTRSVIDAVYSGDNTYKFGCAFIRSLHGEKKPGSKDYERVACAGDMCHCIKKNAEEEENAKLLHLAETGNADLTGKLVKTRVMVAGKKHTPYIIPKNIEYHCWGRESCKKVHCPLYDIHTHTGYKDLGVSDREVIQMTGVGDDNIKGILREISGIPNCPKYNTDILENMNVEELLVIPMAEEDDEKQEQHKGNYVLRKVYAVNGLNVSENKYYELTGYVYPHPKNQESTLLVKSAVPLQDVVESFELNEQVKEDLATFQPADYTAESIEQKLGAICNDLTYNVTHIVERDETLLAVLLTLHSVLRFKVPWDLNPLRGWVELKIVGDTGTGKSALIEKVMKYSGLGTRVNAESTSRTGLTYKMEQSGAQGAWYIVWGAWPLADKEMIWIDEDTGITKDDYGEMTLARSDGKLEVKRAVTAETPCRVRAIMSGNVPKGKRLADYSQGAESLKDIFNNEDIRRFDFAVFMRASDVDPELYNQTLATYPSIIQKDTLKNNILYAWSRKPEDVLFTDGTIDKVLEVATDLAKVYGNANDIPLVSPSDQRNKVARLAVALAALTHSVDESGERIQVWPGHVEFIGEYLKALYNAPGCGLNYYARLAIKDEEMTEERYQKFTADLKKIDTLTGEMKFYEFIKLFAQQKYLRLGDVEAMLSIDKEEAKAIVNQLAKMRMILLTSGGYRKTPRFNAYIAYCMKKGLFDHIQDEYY

[5] = biological target: T1, BcMCM wild type; test: EMSA

## BcMCM 501–1028 (helicase domain) (domain or fragment)
[1]
  stoichiometry N: 6

## BcMCM Walker B mutant (D711A) (enzyme)
[2]
  stoichiometry N: 6

## BcMCM presensor I β-hairpin mutant (R737A) (enzyme)
[3]
  stoichiometry N: 6

B1: biotin-EcoRI-(dT)50 tailed duplex (mixed)
DNA 1: TCCCCCGAATTCCCCCCTTTTTTTTTTTTTTTTTTTTTTTTTTTTTTTTTTTTTTTTTTTTTTTTTT
DNA 2: GGGGGGAATTCGGGGG
modifications: 5' biotin on strand 1
[4]
  binding result: binds

B2: bubble (dsDNA)
DNA 1: ACTGGCCGTCGTTTTACAACGTCGTGACTGGGAAAACCCTGGCGTTACCCAACTTAATCG
DNA 2: CGATTAAGTTGGGTAACGGGTCCCAAAAGGGTCAGTGCTGCATGTAAAACGACGGCCAGT
[5]
  binding result: binds

B3: template-primer, 3'-end oligo (mixed)
DNA 1: B2 DNA 1
DNA 2: CGATTAAGTTGGGTAACGCC
[5]
  binding result: binds

B4: template-primer, 5'-end oligo (mixed)
DNA 1: B2 DNA 1
DNA 2: GTTGTAAAACGACGGCCAGT
[5]
  binding result: binds
